Measured values from patent US20210371536A1 (SEOUL NATIONAL UNIVERSITY R AND DB FOUNDATION, published 2021).

Experiments:
[1] = target: mPDGFR-β on NIH3T3 cells (mouse, UniProt P05622 32-1098); test: cell-based or functional assay
[2] = target: hPDGFR-β on human pericyte cells (human, UniProt P09619 33-1106); test: cell-based or functional assay
[3] = target: T1, cynomolgus monkey PDGFR-β (Fc chimera) (cynomolgus monkey); test: cross-species ELISA on coated antigen, 100 nM bispecific, HRP-anti-human Cκ detection
T1 construct: not shown: human Fc (hFc) and its junction to the receptor part
T1 chain: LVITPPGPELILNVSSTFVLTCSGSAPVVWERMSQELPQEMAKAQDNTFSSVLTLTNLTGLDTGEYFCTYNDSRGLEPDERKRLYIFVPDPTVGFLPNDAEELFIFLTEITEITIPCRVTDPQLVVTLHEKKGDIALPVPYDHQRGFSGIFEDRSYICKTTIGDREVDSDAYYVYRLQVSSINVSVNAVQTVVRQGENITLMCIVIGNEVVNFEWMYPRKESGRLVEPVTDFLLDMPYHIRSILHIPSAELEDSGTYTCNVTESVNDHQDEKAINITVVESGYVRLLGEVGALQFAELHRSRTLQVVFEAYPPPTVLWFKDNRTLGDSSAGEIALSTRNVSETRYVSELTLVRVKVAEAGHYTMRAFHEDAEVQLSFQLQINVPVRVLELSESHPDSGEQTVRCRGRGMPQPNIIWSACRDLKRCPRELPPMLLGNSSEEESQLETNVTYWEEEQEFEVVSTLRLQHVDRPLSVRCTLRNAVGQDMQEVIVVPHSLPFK

[4] = target: T2, Sus scrofa PDGFR-β-Fc chimera (Sus scrofa, UniProt Q6QNF3 33-530 (dog entry)); test: as above
T2 construct: also called Sus crowfa PDGFR-β; not shown: human Fc (hFc) and its junction to the receptor part
T2 chain: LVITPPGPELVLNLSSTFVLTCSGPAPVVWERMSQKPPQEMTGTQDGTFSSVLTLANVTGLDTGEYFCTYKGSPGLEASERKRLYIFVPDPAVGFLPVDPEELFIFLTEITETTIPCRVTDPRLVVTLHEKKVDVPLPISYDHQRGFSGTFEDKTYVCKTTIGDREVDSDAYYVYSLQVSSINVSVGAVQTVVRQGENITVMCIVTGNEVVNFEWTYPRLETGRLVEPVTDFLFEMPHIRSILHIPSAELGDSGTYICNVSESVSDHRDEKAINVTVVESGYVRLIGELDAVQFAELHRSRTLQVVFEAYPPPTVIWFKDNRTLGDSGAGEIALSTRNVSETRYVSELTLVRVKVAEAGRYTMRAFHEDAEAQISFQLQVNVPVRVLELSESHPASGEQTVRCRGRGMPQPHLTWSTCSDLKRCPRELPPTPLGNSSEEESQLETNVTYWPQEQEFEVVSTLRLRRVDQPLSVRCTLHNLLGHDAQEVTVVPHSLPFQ

hPDGFR-β on human pericyte cells, sequence (P09619 33-1106): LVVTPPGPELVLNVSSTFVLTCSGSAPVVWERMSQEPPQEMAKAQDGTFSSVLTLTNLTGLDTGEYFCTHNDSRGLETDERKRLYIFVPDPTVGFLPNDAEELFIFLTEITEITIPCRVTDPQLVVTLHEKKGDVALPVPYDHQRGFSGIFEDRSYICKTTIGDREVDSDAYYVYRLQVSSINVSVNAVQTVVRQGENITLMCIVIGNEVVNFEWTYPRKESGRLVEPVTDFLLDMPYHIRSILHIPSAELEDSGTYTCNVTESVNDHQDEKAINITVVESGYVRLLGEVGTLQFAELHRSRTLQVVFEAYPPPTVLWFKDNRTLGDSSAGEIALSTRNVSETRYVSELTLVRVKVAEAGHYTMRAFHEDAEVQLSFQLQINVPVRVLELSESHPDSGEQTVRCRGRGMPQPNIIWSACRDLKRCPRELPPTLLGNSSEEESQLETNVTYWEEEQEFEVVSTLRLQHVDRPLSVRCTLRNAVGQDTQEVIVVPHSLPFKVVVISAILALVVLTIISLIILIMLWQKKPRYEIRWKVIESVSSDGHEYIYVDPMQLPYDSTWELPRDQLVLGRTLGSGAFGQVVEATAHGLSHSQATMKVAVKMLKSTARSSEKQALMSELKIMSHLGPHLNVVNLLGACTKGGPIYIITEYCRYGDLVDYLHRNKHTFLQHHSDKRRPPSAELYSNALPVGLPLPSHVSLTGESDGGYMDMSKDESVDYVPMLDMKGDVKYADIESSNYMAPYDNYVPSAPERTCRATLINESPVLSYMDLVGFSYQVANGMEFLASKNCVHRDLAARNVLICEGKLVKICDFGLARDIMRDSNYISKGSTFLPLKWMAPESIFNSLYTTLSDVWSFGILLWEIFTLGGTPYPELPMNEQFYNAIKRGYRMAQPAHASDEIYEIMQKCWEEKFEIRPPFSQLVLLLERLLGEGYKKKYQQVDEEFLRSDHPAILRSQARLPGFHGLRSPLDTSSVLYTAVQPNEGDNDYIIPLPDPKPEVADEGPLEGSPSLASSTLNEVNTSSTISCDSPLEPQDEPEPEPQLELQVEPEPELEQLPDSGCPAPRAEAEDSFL
mPDGFR-β on NIH3T3 cells, sequence (P05622 32-1098): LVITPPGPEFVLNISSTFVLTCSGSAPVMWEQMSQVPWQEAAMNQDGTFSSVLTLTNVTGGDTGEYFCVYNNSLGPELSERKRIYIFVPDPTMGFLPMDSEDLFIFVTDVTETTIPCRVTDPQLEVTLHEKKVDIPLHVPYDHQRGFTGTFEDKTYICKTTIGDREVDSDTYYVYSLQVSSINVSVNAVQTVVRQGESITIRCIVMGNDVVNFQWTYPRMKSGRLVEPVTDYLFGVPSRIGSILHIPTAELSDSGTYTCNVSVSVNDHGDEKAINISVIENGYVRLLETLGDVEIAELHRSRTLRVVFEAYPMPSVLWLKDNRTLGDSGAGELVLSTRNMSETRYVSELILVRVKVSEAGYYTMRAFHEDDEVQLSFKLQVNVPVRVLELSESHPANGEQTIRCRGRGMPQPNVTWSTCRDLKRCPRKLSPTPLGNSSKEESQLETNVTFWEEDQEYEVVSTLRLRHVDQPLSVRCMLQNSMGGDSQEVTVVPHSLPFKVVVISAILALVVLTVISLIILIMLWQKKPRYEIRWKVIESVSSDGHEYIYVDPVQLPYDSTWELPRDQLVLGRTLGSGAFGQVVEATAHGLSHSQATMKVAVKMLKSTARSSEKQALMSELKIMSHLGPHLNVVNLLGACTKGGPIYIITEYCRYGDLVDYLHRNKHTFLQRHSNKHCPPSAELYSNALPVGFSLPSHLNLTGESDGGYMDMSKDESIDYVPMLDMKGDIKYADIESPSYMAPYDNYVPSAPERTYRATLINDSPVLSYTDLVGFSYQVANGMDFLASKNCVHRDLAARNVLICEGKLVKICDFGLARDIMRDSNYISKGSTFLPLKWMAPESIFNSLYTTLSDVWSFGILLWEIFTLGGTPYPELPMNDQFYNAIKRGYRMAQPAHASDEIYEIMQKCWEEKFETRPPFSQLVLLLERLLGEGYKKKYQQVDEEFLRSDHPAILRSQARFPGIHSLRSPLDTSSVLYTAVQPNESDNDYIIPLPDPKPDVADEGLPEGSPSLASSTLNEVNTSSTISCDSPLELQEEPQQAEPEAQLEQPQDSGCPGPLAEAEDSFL

B1: PRb-CC03 x cotinine scFv-Cκ-scFv fusion protein (bispecific antibody) (bispecific antibody)
chain: LTQPSSVSANPGETVKITCSGGTYNYGWYQQKSPGSAPVTVIYWNDKRPSDIPSRFSGSKSGSTGTLTITGVQAEDEAVYYCGSSDSSGLIFGAGTTLTVLGQSSRSSGGGGSSGGGGSAVTLDESGGGLQTPGGTLSLVCKASGFTFSSYAMGWVRQAPGKGLEWVAGIDTAGGTAYGPAVKGRATISRDNGQSTVRLQLNNLRAEDTATYYCTRSSYIDTWGHGTEVIVSSTSGGGGSGGGGSGGGGSRTVAAPSVFIFPPSDEQLKSGTASVVCLLNNFYPREAKVQWKVDNALQSGNSQESVTEQDSKDSTYSLSSTLTLSKADYEKHKVYACEVTHQGLSLPVTKSFNRGESGGGGSGGGGSGGGGSDIQMTQSPSSLSASVGDRVTITCQSSQSPYSNEWLSWYQQKPGKAPKLLIYRISTLASGVPSRFSGSRSGTDFTLTISSLQPEDFATYYCAGGYNFGLFLFGQGTKVEIKGQSSRSSGGGGSSGGGGSEVQLVESGGGLVQPGGSLRLSCAASGHLRRRDWMNWVRQAPGKGLEWVAAIGRSGDTYYATWAKGRFTISADTSKNTAYLQMNSLRAEDTAVYYCSRIPYFGWNNGDIWGQGTLVTVSS
IC50 (nM) of relative cell viability (cellular ATP), NIH3T3 cells, bispecific complexed with cot-duo, with mPDGF-BB [1]: 20.7 nM
IC50 (nM) of relative cell viability (cellular ATP), NIH3T3 cells, bispecific complexed with cot-duo, without mPDGF-BB [1]: 27.3 nM
IC50 (nM) of relative cell viability (cellular ATP), NIH3T3 cells, bispecific complexed with cot-duo-cot, with mPDGF-BB [1]: 50.2 nM
IC50 (nM) of relative cell viability (cellular ATP), NIH3T3 cells, bispecific complexed with cot-duo-cot, without mPDGF-BB [1]: 67.3 nM

B2: PRb-CN16 x cotinine scFv-Cκ-scFv fusion protein (bispecific antibody) (bispecific antibody)
chain: LTQPSSVSANPGETVKITCSGSSSSYGWYQQKSPGSAPVTLIYENNQRPSNIPSRFSGSKSGSTGTLTITGVQAEDEAVYYCGNADRSNSAGTFGAGTTLTVLGQSSRSSGGGGSSGGGGSAVTLDESGGGLQTPGTALSLVCKASGFTFSSFNMAWVRQAPGKGLEFVGEISNTAGSTFYAPAVKGRATISRDNGQSTVRLQLNNLRAEDTAIYYCAKAAGTCYSHSCTGYIDAWGHGTEVIVSSTSGGGGSGGGGSGGGGSRTVAAPSVFIFPPSDEQLKSGTASVVCLLNNFYPREAKVQWKVDNALQSGNSQESVTEQDSKDSTYSLSSTLTLSKADYEKHKVYACEVTHQGLSLPVTKSFNRGESGGGGSGGGGSGGGGSDIQMTQSPSSLSASVGDRVTITCQSSQSPYSNEWLSWYQQKPGKAPKLLIYRISTLASGVPSRFSGSRSGTDFTLTISSLQPEDFATYYCAGGYNFGLFLFGQGTKVEIKGQSSRSSGGGGSSGGGGSEVQLVESGGGLVQPGGSLRLSCAASGHLRRRDWMNWVRQAPGKGLEWVAAIGRSGDTYYATWAKGRFTISADTSKNTAYLQMNSLRAEDTAVYYCSRIPYFGWNNGDIWGQGTLVTVSS
notes: also called anti-hPDGFR-β x cotinine scFv-Cκ-scFv
IC50 (nM) of relative cell viability (cellular ATP), human pericyte cells, bispecific complexed with cot-duo, with hPDGF-BB [2]: 1.82 nM
IC50 (nM) of relative cell viability (cellular ATP), human pericyte cells, bispecific complexed with cot-duo, without hPDGF-BB [2]: 2.39 nM
binding result [3]: binds
binding result [4]: binds

B3: PRb-CC01 x cotinine scFv-Cκ-scFv fusion protein (bispecific antibody) (bispecific antibody)
chain: LTQPSSVSANLGGTVKITCSGGGSYYGWYQQKSPGSAPVTLIYYNDKRPSDIPSRFSGSKSGSTGTLTITGVQAEDEAVYFCGAWDNSAGYAGFGAGTTLTVLGQSSRSSGGGGSSGGGGSAVTLDESGGGLQTPGGALSLVCKGSGFTFSSYNMGWVRQAPGKGLEFVAGISAADNSTAYGAAVDGRATISRDNGQSTVRLQLNNLRAEDTATYFCIRGGGSIDAWGHGTEVIVSSGGGGSGGGGSGGGGSRTVAAPSVFIFPPSDEQLKSGTASVVCLLNNFYPREAKVQWKVDNALQSGNSQESVTEQDSKDSTYSLSSTLTLSKADYEKHKVYACEVTHQGLSLPVTKSFNRGESGGGGSGGGGSGGGGSDIQMTQSPSSLSASVGDRVTITCQSSQSPYSNEWLSWYQQKPGKAPKLLIYRISTLASGVPSRFSGSRSGTDFTLTISSLQPEDFATYYCAGGYNFGLFLFGQGTKVEIKGQSSRSSGGGGSSGGGGSEVQLVESGGGLVQPGGSLRLSCAASGHLRRRDWMNWVRQAPGKGLEWVAAIGRSGDTYYATWAKGRFTISADTSKNTAYLQMNSLRAEDTAVYYCSRIPYFGWNNGDIWGQGTLVTVSS
IC50 (nM) of relative cell viability (cellular ATP), NIH3T3 cells, bispecific complexed with cot-duo, with mPDGF-BB [1]: 27.1 nM
IC50 (nM) of relative cell viability (cellular ATP), NIH3T3 cells, bispecific complexed with cot-duo, without mPDGF-BB [1]: 25 nM
IC50 (nM) of relative cell viability (cellular ATP), NIH3T3 cells, bispecific complexed with cot-duo-cot, with mPDGF-BB [1]: 67.2 nM
IC50 (nM) of relative cell viability (cellular ATP), NIH3T3 cells, bispecific complexed with cot-duo-cot, without mPDGF-BB [1]: 87.6 nM

B4: PRb-CC02 x cotinine scFv-Cκ-scFv fusion protein (bispecific antibody) (bispecific antibody)
chain: LTQPSSVSANPGETVKITCSGGGGSYGWYQQKSPGSAPVTVIYYNDKRPSDIPSRFSGSKSGSTGTLTITGVQAEDEAVYFCGSYNSSDSLFGAGTTLTVLGQSSRSSGGGGSSGGGGSAVTLDESGGGLQTPGGALSLVCKASGFTFSSYGMFWVRQAPGKGLEWVAGIDTGSGTNYGSAVKGRATISRDNGQSTVRLQLNNLRAEDTGTYFCTRGYAGTIDAWGHGTEVIVSSTSGGGGSGGGGSGGGGSRTVAAPSVFIFPPSDEQLKSGTASVVCLLNNFYPREAKVQWKVDNALQSGNSQESVTEQDSKDSTYSLSSTLTLSKADYEKHKVYACEVTHQGLSLPVTKSFNRGESGGGGSGGGGSGGGGSDIQMTQSPSSLSASVGDRVTITCQSSQSPYSNEWLSWYQQKPGKAPKLLIYRISTLASGVPSRFSGSRSGTDFTLTISSLQPEDFATYYCAGGYNFGLFLFGQGTKVEIKGQSSRSSGGGGSSGGGGSEVQLVESGGGLVQPGGSLRLSCAASGHLRRRDWMNWVRQAPGKGLEWVAAIGRSGDTYYATWAKGRFTISADTSKNTAYLQMNSLRAEDTAVYYCSRIPYFGWNNGDIWGQGTLVTVSS
IC50 (nM) of relative cell viability (cellular ATP), NIH3T3 cells, bispecific complexed with cot-duo, with mPDGF-BB [1]: 20.6 nM
IC50 (nM) of relative cell viability (cellular ATP), NIH3T3 cells, bispecific complexed with cot-duo, without mPDGF-BB [1]: 20.1 nM
IC50 (nM) of relative cell viability (cellular ATP), NIH3T3 cells, bispecific complexed with cot-duo-cot, with mPDGF-BB [1]: 89 nM
IC50 (nM) of relative cell viability (cellular ATP), NIH3T3 cells, bispecific complexed with cot-duo-cot, without mPDGF-BB [1]: 125 nM

B5: PRb-CN01 x cotinine scFv-Cκ-scFv fusion protein (bispecific antibody) (bispecific antibody)
chain: LTQPSSVSANPGETVKITCSGGSGSYGWFQQKSPGSAPVTVIYSNNQRPSDIPSRFSGSKSGSTNTLTITGVQAEDEAIYYCGTRDSSYVGIFGAGTTLTVLGQSSRSSGGGGSSGGGGSAVTLDESGGGLQTPGGALSLVCKASGFTFSDRAMHWVRQAPGKGLEWVGLITNTGGSTNYGAAVKGRATISRDNGQSTVRLQLNNLRAEDTGTYYCTRGVGSWAHGGRIDAWGHGTEVIVSSGGGGSGGGGSGGGGSRTVAAPSVFIFPPSDEQLKSGTASVVCLLNNFYPREAKVQWKVDNALQSGNSQESVTEQDSKDSTYSLSSTLTLSKADYEKHKVYACEVTHQGLSLPVTKSFNRGESGGGGSGGGGSGGGGSDIQMTQSPSSLSASVGDRVTITCQSSQSPYSNEWLSWYQQKPGKAPKLLIYRISTLASGVPSRFSGSRSGTDFTLTISSLQPEDFATYYCAGGYNFGLFLFGQGTKVEIKGQSSRSSGGGGSSGGGGSEVQLVESGGGLVQPGGSLRLSCAASGHLRRRDWMNWVRQAPGKGLEWVAAIGRSGDTYYATWAKGRFTISADTSKNTAYLQMNSLRAEDTAVYYCSRIPYFGWNNGDIWGQGTLVTVSS
IC50 (nM) of relative cell viability (cellular ATP), NIH3T3 cells, bispecific complexed with cot-duo, with mPDGF-BB [1]: 9.7 nM
IC50 (nM) of relative cell viability (cellular ATP), NIH3T3 cells, bispecific complexed with cot-duo, without mPDGF-BB [1]: 8.3 nM
IC50 (nM) of relative cell viability (cellular ATP), NIH3T3 cells, bispecific complexed with cot-duo-cot, with mPDGF-BB [1]: 30.5 nM
IC50 (nM) of relative cell viability (cellular ATP), NIH3T3 cells, bispecific complexed with cot-duo-cot, without mPDGF-BB [1]: 20.1 nM

B6: PRb-CN26 x cotinine scFv-Cκ-scFv fusion protein (bispecific antibody) (bispecific antibody)
chain: LTQPSSVSANPGETVKITCSGGGSYAGSYYYGWYQQKSPGSAPVTVIYDNTNRPSNIPSRFSGSLSGSTDTLTITGVQAEDEAVYFCGGYDGISDTGIFGAGTTLTVLGQSSRSSGGGGSSGGGGSAVTLDESGGGLQTPGGGLSLVCKASGFTFSDRGIHWVRQAPGKGLEWVAGIGNTGSYTAYAPAVKGRATISRDNGQSTVRLQLNNLRAEDTATYYCAKRGFMDAGGIDAWGHGTEVIVSSTSGGGGSGGGGSGGGGSRTVAAPSVFIFPPSDEQLKSGTASVVCLLNNFYPREAKVQWKVDNALQSGNSQESVTEQDSKDSTYSLSSTLTLSKADYEKHKVYACEVTHQGLSLPVTKSFNRGESGGGGSGGGGSGGGGSDIQMTQSPSSLSASVGDRVTITCQSSQSPYSNEWLSWYQQKPGKAPKLLIYRISTLASGVPSRFSGSRSGTDFTLTISSLQPEDFATYYCAGGYNFGLFLFGQGTKVEIKGQSSRSSGGGGSSGGGGSEVQLVESGGGLVQPGGSLRLSCAASGHLRRRDWMNWVRQAPGKGLEWVAAIGRSGDTYYATWAKGRFTISADTSKNTAYLQMNSLRAEDTAVYYCSRIPYFGWNNGDIWGQGTLVTVSS
IC50 (nM) of relative cell viability (cellular ATP), human pericyte cells, bispecific complexed with cot-duo, with hPDGF-BB [2]: 0.87 nM
IC50 (nM) of relative cell viability (cellular ATP), human pericyte cells, bispecific complexed with cot-duo, without hPDGF-BB [2]: 0.9 nM
binding result [3]: binds
binding result [4]: binds
